According to patent US12325863B2, “MDA-7/IL-24 secretory variants and methods of use” (Virginia Commonwealth University, priority 2018, dated 2025):
Where a chain is given by its changes, count along the chain named. Names may count otherwise.

Key:
[1] = tested on: RWPE-1 cells; assay: MTT assay with Mcl-1 inhibitors, RWPE-1; type: cell-based, human; conditions: alone or in combination with MDA-7/IL-24, 48 hrs; FIG. 26C
Description: Human (DU-145) CaP cells were treated with different targeted small molecules alone (FIG. 26A) or in combination with MDA-7/IL-24 (FIG. 26B), and after 48 hrs cell growth was measured by MTT. * indicates statistical significance vs. respective control group. Immortalized primary normal human prostate epithelial cells, RWPE-1, were treated with different combinations as indicated and MTT assays were performed at 48 hrs (FIG. 26C). Murine (RMI-BM) CaP cells were treated with different targeted small molecules alone (FIG. 26D) or in combination with MDA-7/IL-24 (FIG. 26E), and after 48 hrs. cell growth was measured by MTT.
To test a multi-target approach for treatment of prostate cancer bone metastases, experiments were conducted to target Mcl-1 inhibition and investigate the effects on NG-mda-7/IL-24 efficacy. Using NMR (nuclear magnetic resonance) and computational biology, two Mcl-1 inhibitors were identified (Sabutoclax and BI-97D6) and their activity was validated in immune competent mice in combination with MDA-7/IL-24. In addition to these inhibitors, three commercially available targeted inhibitors were evaluated to determine potential synergistic effects with MDA-7/IL-24. The three inhibitors were UMI-77 (showing selectivity to Mcl-1 over other members of the Bcl-2 family), Marinopyrrole A (selective inhibitor of Mcl-1), and A-1210477. […]

[2] = Sabutoclax and BI-97D6 in combination with MDA-7/IL-24; conditions: combined with MDA-7/IL-24; earlier observation referred to
Description: To test a multi-target approach for treatment of prostate cancer bone metastases, experiments were conducted to target Mcl-1 inhibition and investigate the effects on NG-mda-7/IL-24 efficacy. […] In addition to these inhibitors, three commercially available targeted inhibitors were evaluated to determine potential synergistic effects with MDA-7/IL-24. […] Next, the therapeutic effect of MDA-7/IL-24 protein in combination with BI-97D6 was tested, in male athymic nude mice injected by the intracardiac route with human prostate cancer PC3-ML cells, resulting in bone metastases.

[3] = tested on: human prostate cancer PC3-ML cells; assay: PC3-ML intracardiac bone metastasis model in athymic nude mice; type: in vivo; conditions: single agent, versus control group
Description: To test a multi-target approach for treatment of prostate cancer bone metastases, experiments were conducted to target Mcl-1 inhibition and investigate the effects on NG-mda-7/IL-24 efficacy. Using NMR (nuclear magnetic resonance) and computational biology, two Mcl-1 inhibitors were identified (Sabutoclax and BI-97D6) and their activity was validated in immune competent mice in combination with MDA-7/IL-24. In addition to these inhibitors, three commercially available targeted inhibitors were evaluated to determine potential synergistic effects with MDA-7/IL-24. The three inhibitors were UMI-77 (showing selectivity to Mcl-1 over other members of the Bcl-2 family), Marinopyrrole A (selective inhibitor of Mcl-1), and A-1210477. […] Mcl-1 expression was elevated by 1.7-fold in RM1-BM (RM1-BM cells selected for enhanced metastasis to bone) as compared to RM1 cells, indicating functional relevance of Mcl-1 in this metastatic process. […] This further supported the cancer-specificity of specific Mcl-1 inhibitors. Next, the therapeutic effect of MDA-7/IL-24 protein in combination with BI-97D6 was tested, in male athymic nude mice injected by the intracardiac route with human prostate cancer PC3-ML cells, resulting in bone metastases.

[4] = tested on: HeLa cells; assay: MTT assay, HeLa cells treated with conditioned media from transfected HeLa cells; type: cell-based, human; conditions: vs control conditioned media, FIG. 8
Excerpt: (§1) Next, lysine 122 of MDA-7/IL-24 was converted to arginine by site directed mutagenesis using forward primer (5′-[…]-3′) (SEQ ID NO: 19) and reverse primer (5′-[…]-3′) (SEQ ID NO: 20). […] These enzymes are capable of reducing the tetrazolium dye MTT 3-(4,5-dimethylthiazol-2-yl)-2,5-diphenyltetrazolium bromide to its insoluble formazan, which has a purple color.

[5] = tested on: HeLa cells; assay: MDA-7/IL-24 protein in conditioned media and lysates of transfected HeLa cells (Western blotting); type: cell-based, human
Description: (§2) SARI expression was determined at the transcript level in DU-145 cells after transfection with the indicated plasmids. […] The protein expression of MDA-7/IL-24 from the conditioned media (FIG. 5) and cell lysates (FIG. 6) of HeLa cells transfected with full length MDA-7 and Insulin(sp)-MDA-7 was assayed.
as §1

[6] = tested on: HeLa cells; assay: MTT assay following transfection of HeLa cells with constructs; type: cell-based, human; conditions: for proliferation (MTT): following transfection of HeLa cells, FIG. 14
Excerpt: as §1
(§3) Having an MDA-7/IL-24 construct with enhanced protein secretion as well as enhanced protein stability may be very valuable as a potential gene therapeutic for cancer. Accordingly, lysine 122 was mutated to arginine in the Insulin(sp)-MDA-7 construct using site-directed mutagenesis. […] PARP cleavage and the expression of GRP-78 were also assessed in DU-145 cells following transfection with MDA-7(sp)-MDA-7 (wild type MDA-7 signal peptide), Insulin(sp)-MDA-7, MDA-7(sp)-MDA-7(K122R) and Insulin(sp)-MDA-7(K122R) (FIG. 13).
(§4) PARP cleavage and the expression of GRP-78 were also evaluated in DU-145 cells following transfection with these four constructs, the results for which are shown in FIG. 20.

[7] = tested on: DU-145 cells; assay: MTT assay, DU-145 cells treated with conditioned media from transfected HeLa cells; type: cell-based, human; conditions: vs control conditioned media, FIG. 9
Excerpt: as §1

[8] = tested on: SARI; assay: SARI expression at the transcript level in transfected DU-145 cells; type: cell-based, human
Description: as §2, §3, §4

[9] = tested on: DU-145 cells; assay: ELISA of MDA-7/IL-24 protein in conditioned media of transfected DU-145 cells; type: cell-based, human; conditions: DU-145 cells transfected; FIG. 10
Description: In an effort to enhance its anti-cancer activity, genetic engineering experiments were conducted to enhance MDA-7/IL-24 secretion. Five different signal peptides (abbreviated “sp”) were introduced, linked to MDA-7/IL-24, and assessed for protein secretion. The five signal peptides tested were endogenous human MDA-7/IL-24, human IL-2, human Insulin, Flt-3 and human BM40 (osteonectin/SPARC) signal peptides. The constructs were designated MDA-7(sp)-MDA-7 (wild type MDA-7 signal peptide), IL-2(sp)-MDA-7, Insulin(sp)-MDA-7, Flt-3(sp)-MDA-7 and BM40(sp)-MDA-7, respectively. Each of these constructs also included a Histidine-tag. These constructs were transfected into DU-145 cells (human prostate cancer cells).
The presence of MDA-7/IL-24 in the conditioned media was assessed by enzyme-linked immunosorbent assay (ELISA) and results are shown in FIG. 2.
as §3

[10] = tested on: DU-145 cells; assay: MDA-7/IL-24 transcript level (RTQ-PCR) in transfected DU-145 cells; type: cell-based, human; conditions: DU-145 cells transfected; FIG. 11
[11] = tested on: DU-145 cells; assay: M4 protein in lysate and conditioned media of transfected DU-145 cells; type: cell-based, human; conditions: K122R versus Flt-3(sp)-M4, FIG. 22
Excerpt: (§5) As noted in Example 1, improvements were obtained by mutating lysine at position 122 to arginine in full-length MDA-7/IL-24. The corresponding lysine was identified in M4 and mutated to arginine using site directed mutagenesis using forward primer (5′-[…]-3′) (SEQ ID NO: 19) and reverse primer (5′-[…]-3′) (SEQ ID NO: 20). Next, Flt-3(sp)-M4 and Flt-3(sp)-M4(K122R) were transfected into DU-145 cells. […] The conditioned media from transfected IM-PHFA (immortalized primary human fetal astrocytes) cells was added to DU-145 cells and MTT assays were performed (FIG. 24).

[12] = tested on: DU-145 cells; assay: MTT assay, DU-145 cells treated with conditioned media from transfected IM-PHFA cells; type: cell-based, human; conditions: compared to the control, FIG. 24
Excerpt: as §5

[13] = tested on: DU-145 cells; assay: M4 expression in conditioned media of transfected DU-145 cells (ELISA); type: cell-based, human; conditions: compared to the other 3 signal peptides, FIG. 17
Description: To determine if different sequence motifs could enhance the secretion of M4 over Flt-3(sp)-M4, three additional signal peptides linked to M4 were introduced and protein secretion was assessed. The four signal peptides tested were endogenous human MDA-7/IL-24, human IL-2, human Insulin, and Flt-3 signal peptides. The constructs were designated MDA-7(sp)-M4 (wildtype MDA-7/IL-24 secretory peptide), IL-2(sp)-M4, Insulin(sp)-M4, and Flt-3(sp)-M4, respectively, and a schematic illustration is shown in FIG. 16. Each of these constructs also included a Histidine-tag. These constructs were transfected into DU-145 cells and assessed for expression of M4 in the conditioned media (FIG. 17) and at the transcript level (FIG. 18). An MDA-7/IL-24 antibody and RT-Q-PCR primers able to detect M4 were used to assess M4 expression.
as §4

With `O=C(c1ccccc1O)c1[nH]c(Cl)c(Cl)c1-n1c(C(=O)c2ccccc2O)cc(Cl)c1Cl` [Marinopyrrole A] the “anti-proliferative effects (MTT)” value [1] was “anti-proliferative effects”.

With BI-97D6 [reference compound] the antitumor synergy [2] was “antitumor synergy” and the bone metastases [3] was “statistically significant inhibition of bone metastases”.

B1: MDA-7(sp)-MDA-7(K122R): MDA-7/IL-24 with lysine 122 converted to arginine; encoded by SEQ ID NO: 10 (protein, UniProt Q13007 1-206, looked up, variant K122R)
chain: MNFQQRLQSLWTLARPFCPPLLATASQMQMVVLPCLGFTLLLWSQVSGAQGQEFHFGPCQVKGVVPQKLWEAFWAVKDTMQAQDNITSARLLQQEVLQNVSDAESCYLVHTLLEFYLKTVFRNYHNRTVEVRTLKSFSTLANNFVLIVSQLQPSQENEMFSIRDSAHRRFLLFRRAFKQLDVEAALTKALGEVDILLTWMQKFYKL
modifications: full-length
In the case of B1, the “proliferation (MTT)” value [4] is reported as “decrease in proliferation”, the “protein in the conditioned media by Western blotting” value ([5]; HeLa cells transfected, FIG. 5) is reported as “increase in protein” and the “protein in cell lysate by Western blotting” value ([5]; HeLa cells transfected, FIG. 6) is reported as “increase in protein”. For the same molecule, the “proliferation (MTT)” value [6] was “decrease in proliferation” and the “proliferation (MTT)” value [7] was “decrease in proliferation”.

B2: Insulin(sp)-MDA-7: human Insulin signal peptide linked to MDA-7/IL-24, Histidine-tag; encoded by SEQ ID NO: 6 (protein)
chain: MALWMRLLPLLALLALWGPDPAAAHHHHHHENLYFQGMQEFHFGPCQVKGVVPQKLWEAFWAVKDTMQAQDNITSARLLQQEVLQNVSDAESCYLVHTLLEFYLKTVFKNYHNRTVEVRTLKSFSTLANNFVLIVSQLQPSQENEMFSIRDSAHRRFLLFRRAFKQLDVEAALTKALGEVDILLTWMQKFYKL
With B2 the “proliferation (MTT)” value [4] was “decrease in proliferation”, the MDA-7/IL-24 protein secretion ([5]; HeLa cells, versus full length MDA-7, FIGS. 5, 6) was “dramatic increase in MDA-7/IL-24 protein secretion” and the “proliferation (MTT)” value [6] was “decrease in proliferation”. The “proliferation (MTT)” value [7] was “decrease in proliferation” and the “SARI expression at the transcript level” value ([8]; DU-145 cells, five signal peptide MDA-7 constructs, FIG. 4) was “highest SARI expression”.

B3: Insulin(sp)-MDA-7(K122R): insulin signal peptide fused to the K122R mutation variant of MDA-7/IL-24; encoded by SEQ ID NO: 11 (protein)
chain: B2 chain with K109R
In the case of B3, the “MDA-7/IL-24 expression in the conditioned media using ELISA” value [9] is reported as “enhanced MDA-7/IL-24 expression”, the “MDA-7/IL-24 expression at the transcript level using RTQ-PCR” value [10] is reported as “enhanced MDA-7/IL-24 expression” and the “proliferation (MTT)” value [6] is reported as “decrease in proliferation”. For the same molecule, the “SARI induction at the transcript level” value ([8]; compared to Insulin(sp)-MDA-7 or MDA-7 containing K122R, FIG. 12) was “highest SARI induction”.

B4: Flt-3(sp)-M4(K122R): Flt-3(sp)-M4 with the corresponding lysine mutated to arginine; encoded by SEQ ID NO: 16 (protein)
chain: MTVLAPAWSPTTYLLLLLLLSGSESCYLVHTLLEFYLKTVFRNYHNRTVEVRTLKSFSTLANNFVLIVSQLQPSQENEMFSIRDSAHRRFLLFRRAFKQLDVEAALTKALGEVDILLTWMQRFYKLGGSHHHHHH
In the case of B4, the “protein in cell lysates” value [11] is reported as “increase in protein”, the “protein in the conditioned media” value [11] is reported as “increase in protein” and the “cell growth (MTT)” value [12] is reported as “cell growth suppression”.

B5: Flt-3(sp)-M4: Flt-3 signal peptide linked to M4; encoded by SEQ ID NO: 14 (protein)
chain: B4 chain with R42K, R122K
For B5, the “cell growth (MTT)” value [12] was “cell growth suppression”.

B6: Insulin(sp)-M4: human Insulin signal peptide linked to M4; encoded by SEQ ID NO: 12 (protein)
chain: MALWMRLLPLLALLALWGPDPAAAHHHHHHENLYFQGMESCYLVHTLLEFYLKTVFKNYHNRTVEVRTLKSFSTLANNFVLIVSQLQPSQENEMFSIRDSAHRRFLLFRRAFKQLDVEAALTKALGEVDILLTWMQKFYKL
For B6, the M4 protein secretion [13] was “enhanced M4 protein secretion to a greater extent”, the “growth (MTT)” value ([6]; M4 constructs, transfection of HeLa cells, FIG. 21) was “growth suppression” and the SARI expression ([8]; DU-145 cells, four signal peptide M4 constructs, FIG. 19) was “highest SARI expression”.
